Results published in PMC3798268, “A Minimal Nitrogen Fixation Gene Cluster from Paenibacillus sp. WLY78 Enables Expression of Active Nitrogenase in Escherichia coli”.

Experiments:
[1] = target: T1, E. coli sigma70-RNAP holoenzyme (Escherichia coli, UniProt P0A7Z4;P0A8V2;P0A8T7;P0A800;P00579 1-329;1-1342;1-1407;2-91;1-613); assay: EMSA; reported to bind more tightly than Paenibacillus sigma70; EMSA: Roche DIG Gel Shift Kit, 0.03 pmol labeled DNA, buffer not stated; footprinting: binding 30 min at 25 C, DNase I 40 s at 37 C; details: protein: commercial; chain copies: 2;1;1;1;1; label: digoxigenin (DIG Gel Shift Kit); blunt
[2] = target: T1, E. coli sigma70-RNAP holoenzyme; assay: EMSA; EMSA: Roche DIG Gel Shift Kit, 0.03 pmol labeled DNA, buffer not stated; footprinting: binding 30 min at 25 C, DNase I 40 s at 37 C; details: protein: commercial; chain copies: 2;1;1;1;1; blunt

B1: nifB promoter 50 bp (-47 to +3) (dsDNA)
DNA 1: GGAGAAGTGAATTGACTGTATTTGTCCCTGTCTCTAAGATGTAATTATAT
DNA 2: ATATAATTACATCTTAGAGACAGGGACAAATACAGTCAATTCACTTCTCC
B1: binds [1].

B2: scrambled 39 bp DNA (dsDNA)
DNA 1: GTACGGAGTATCCAGCTCCGTAGCATGCAAATCCTCTGG
DNA 2: CCAGAGGATTTGCATGCTACGGAGCTGGATACTCCGTAC
B2: no binding [2].
